Target: H-OspA, freshly biotinylated (Borrelia bavariensis strain SKT-7.1)
Test: BLI; BLItz; biotinylated H-OspA on streptavidin biosensors (250 μg/mL, 150 s); soluble sdAb at 7.25, 14.5 and 29 μM; 120 s association, 120 s dissociation; PBS-T, 0.02% Tween-20; global fitting (1:1)

Row | Binder | koff | kon
1 | Soluble sdAb produced from PhC11 (VHH) VHH: QVEVVASGGGLVQAGESLRLSCTASGFTFDNVAAGWFRQAPGKEREGVACISKNGRTTDSADSVKGRFTISRDTAKNTVYLQMDKLKVEDTAEYYCAATYLNTCVLSSPPENIHYWGKGTQVTVS | 0.0586 s⁻¹ | 13700 M⁻¹ s⁻¹
2 | Soluble sdAb produced from PhC12 (VHH) VHH: RREVVESGGGLVQPGESLRVACAASGFTVSSYIMHWVRQAPGKGLEWVSYIDHGGNTVYGDSVKGRFTISRDNAKNTLALQMNSLKPEDTALYYCVRDGDNTHFVAYDYWGQGTLVTVS | 0.146 s⁻¹ | 185 M⁻¹ s⁻¹

Source: PMC5259998
